Test results as given in patent publication US20090232837A1.

Molecular target: RTQKEASI peptide (mammalian)
Test: ELISA, peptide adsorbed to wells (10 mg/ml)

Negative control (ELISA of Table 3) showed an OD of 0.141 OD.
